Blank lines part the entries; values can stand above or below the binder they belong to.
How the values were obtained:
SEC = target: the molecule itself; experiment: SEC
crystal structure = target: the molecule itself; experiment: crystal structure
[1] = target: T1, FGL-1 Fibrinogen-like domain (FD), dimer, C-terminal Avi-tag, biotinylated (human), Q08830; experiment: BLI
T1 chain: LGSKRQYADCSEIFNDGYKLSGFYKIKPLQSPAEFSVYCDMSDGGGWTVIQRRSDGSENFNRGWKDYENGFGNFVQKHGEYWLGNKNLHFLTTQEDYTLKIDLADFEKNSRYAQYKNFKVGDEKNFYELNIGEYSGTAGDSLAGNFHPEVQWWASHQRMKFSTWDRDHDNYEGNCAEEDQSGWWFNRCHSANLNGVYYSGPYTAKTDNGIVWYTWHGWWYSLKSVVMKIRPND

[2] = target: T2, FGL-1 Fibrinogen-like domain (FD), monomer, C-terminal Avi-tag, biotinylated (human), Q08830; experiment: BLI
T2 chain: T1 chain

B1: FGL-1 Fibrinogen-like domain (FD), dimer, C-terminal Avi-tag, biotinylated (domain or fragment, human, UniProt Q08830 74-306, looked up)
chain: T1 chain
modifications: biotin on the Avi-tag (BirA)
stoichiometry N (SEC): 2

B2: FGL-1 FD dimer (without Avi-tag) (domain or fragment, human, UniProt Q08830 74-306, looked up)
chain: T1 chain
binding result (crystal structure): binds

Kd [1]: 16.8 nM | Kd [2]: 740 nM
B3: LAG-3 (soluble analyte in BLI), P18627 23-450 (receptor)
chain: LQPGAEVPVVWAQEGAPAQLPCSPTIPLQDLSLLRRAGVTWQHQPDSGPPAAAPGHPLAPGPHPAAPSSWGPRPRRYTVLSVGPGGLRSGRLPLQPRVQLDERGRQRGDFSLWLRPARRADAGEYRAAVHLRDRALSCRLRLRLGQASMTASPPGSLRASDWVILNCSFSRPDRPASVHWFRNRGQGRVPVRESPHHHLAESFLFLPQVSPMDSGPWGCILTYRDGFNVSIMYNLTVLGLEPPTPLTVYAGAGSRVGLPCRLPAGVGTRSFLTAKWTPPGGGPDLLVTGDNGDFTLRLEDVSQAQAGTYTCHIHLQEQQLNATVTLAIITVTPKSFGSPGSLGKLLCEVTPVSGQERFVWSSLDTPSQRSFSGPWLEAQEAQLLSQPWQCQLYQGERLLGAAVYFTELSSPGAQRSGRAPGALPAGHL
modifications: not checked
